Results: the supplement of paper PMC7125110
± gives the standard error. Variants at the floor of the assay were thinned out.

B1: glmS ribozyme (parent)
chain: AUAAAAGCGCCAGAACUACAGAAAUGUAGUUGACGAGGAGGAGGUUUAUCGAAUUUUCGGCGGAUGCCUCCAAA

How the values were obtained:
Conditions in all cases: with glucosamine-6-phosphate
glucosamine-6-phosphate [1] = variants of: B1; test: self-cleavage kobs at 160 uM GlcN6P; higher = faster cleavage; RNA array
Method in brief: (§1)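 Glucosamine-6-phosphate, from 40 μM to 10 mM in HEPES/KCl/Mg(OAc)2 buffer, was flowed over sequenced MiSeq chips carrying barcoded ribozyme variants transcribed in situ by E. coli RNA polymerase. A hybridised Cy3 probe tracked the variants at 37 °C as tiles were imaged over ~14 h. kobs, kcat and KM were obtained by fitting normalised per-tile medians to exponential decays and then applying weighted Michaelis–Menten fits across concentrations.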

glucosamine-6-phosphate [2] = variants of: B1; test: self-cleavage kobs at 640 uM GlcN6P; higher = faster cleavage; RNA array
Method in brief: as §1

glucosamine-6-phosphate [3] = variants of: B1; test: self-cleavage kobs at 2500 uM GlcN6P; higher = faster cleavage; RNA array
Method in brief: as §1

glucosamine-6-phosphate [4] = variants of: B1; test: self-cleavage kobs at 10000 uM GlcN6P; higher = faster cleavage; RNA array
Method in brief: as §1

glucosamine-6-phosphate [5] = variants of: B1; test: self-cleavage kobs at 40 uM GlcN6P; higher = faster cleavage; RNA array
Method in brief: as §1

| Variant | self-cleavage kobs at 160 uM GlcN6P (glucosamine-6-phosphate [1]) [s⁻¹] | self-cleavage kobs at 640 uM GlcN6P (glucosamine-6-phosphate [2]) [s⁻¹] | self-cleavage kobs at 2500 uM GlcN6P (glucosamine-6-phosphate [3]) [s⁻¹] | self-cleavage kobs at 10000 uM GlcN6P (glucosamine-6-phosphate [4]) [s⁻¹] | self-cleavage kobs at 40 uM GlcN6P (glucosamine-6-phosphate [5]) [s⁻¹] |
| --- | --- | --- | --- | --- | --- |
| U30A G38U U65G C68G | 0.000204 ± 4.9e-05 | 0.000139 ± 4.3e-05 | 0.000149 ± 4.5e-05 | 7.88e-05 ± 1.5e-05 |  |
| C16U G63U G66A |  |  |  | < 1e-05 | < 1e-05 |
| U31G G43C | < 1e-05 | < 1e-05 | < 1e-05 |  | < 1e-05 |
| G32C A33U | < 1e-05 | < 1e-05 | < 1e-05 |  | < 1e-05 |
| U69A | 0.000534 ± 0.00018 | 0.000282 ± 3.1e-05 | 0.00219 ± 0.0004 | 0.000299 ± 4.6e-05 | 0.000341 ± 7.7e-05 |
| C50U C61U |  | < 1e-05 | < 1e-05 | < 1e-05 | < 1e-05 |
| G9C G37U | < 1e-05 | < 1e-05 | < 1e-05 |  | < 1e-05 |
| U30G C71U | 0.000449 ± 0.00011 | 0.00135 ± 0.00022 | 0.00639 ± 0.0013 | 0.00769 ± 0.0016 | 0.00033 ± 5e-05 |
| G43A G66U |  |  | < 1e-05 |  | < 1e-05 |
| G29C A36G G41U | < 1e-05 | < 1e-05 | < 1e-05 |  |  |
| G44C G60C | < 1e-05 | < 1e-05 |  | < 1e-05 | < 1e-05 |
| C8G C70A |  |  | < 1e-05 | < 1e-05 | < 1e-05 |
| A48C G51U C58G |  |  |  |  | < 1e-05 |
| G7U C50G | 0.000551 ± 0.00024 |  | 0.0008 ± 0.00024 |  | 0.000281 ± 8.4e-05 |
| C8U U31G G62U |  |  |  |  | < 1e-05 |
| A6G U31A U46G C68G |  |  |  | < 1e-05 | < 1e-05 |
| U55G U57G C67U |  |  |  |  | < 1e-05 |
| G13A G37U A39G G41C A42C G43A |  |  |  | < 1e-05 | < 1e-05 |
| C34A G37A A48U |  | < 1e-05 | < 1e-05 | < 1e-05 | < 1e-05 |
| A42C A52C C67G | < 1e-05 |  |  |  |  |
| U30C G43U C70A |  |  |  |  | < 1e-05 |
| C8U G51A A52G G63C |  |  |  |  | < 1e-05 |
| A36C A52C C70U | < 1e-05 | < 1e-05 |  |  |  |
| G35C C67A | < 1e-05 | < 1e-05 |  | < 1e-05 | < 1e-05 |
